Reference: publication doi:10.1101/2020.02.21.959445

Assays:
Test in all cases: EMSA
ME47/AA = target: T1, ME47/AA (designed (human Max/human E47), R12A;C29A)
T1 chain: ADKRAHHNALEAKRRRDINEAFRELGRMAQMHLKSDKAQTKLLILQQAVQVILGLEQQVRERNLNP

MEF-1 = target: T2, MEF-1 (designed (human Max/human E47/FosW))
T2 chain: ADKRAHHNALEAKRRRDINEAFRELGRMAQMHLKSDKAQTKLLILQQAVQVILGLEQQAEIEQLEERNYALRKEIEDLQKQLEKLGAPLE

MEF+1 = target: T3, MEF+1 (designed (human Max/human E47/FosW))
T3 chain: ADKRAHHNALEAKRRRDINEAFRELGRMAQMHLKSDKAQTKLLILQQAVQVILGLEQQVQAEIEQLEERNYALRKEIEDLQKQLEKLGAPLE

MEF/LA = target: T4, MEF/LA (designed (human Max/human E47/FosW), four FosW heptad Leu to Ala (see sequence))
T4 chain: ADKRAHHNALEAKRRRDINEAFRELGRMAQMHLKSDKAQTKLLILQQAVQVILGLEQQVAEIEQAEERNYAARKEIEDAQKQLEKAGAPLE

MEF = target: T5, MEF (designed (human Max/human E47/FosW))
T5 chain: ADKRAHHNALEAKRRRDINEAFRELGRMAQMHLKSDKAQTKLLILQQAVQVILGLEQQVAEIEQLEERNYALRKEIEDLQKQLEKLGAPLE

B1: AT E-box (-7 AT E-box) (dsDNA)
DNA 1: GCGGCCGCTGCAGGAACCACGTGGTGGAATTCTTTACA
DNA 2: TGTAAAGAATTCCACCACGTGGTTCCTGCAGCGGCCGC
Kd (ME47/AA): 28.5 ± 2.3 nM

B2: NS DNA (nonspecific; TCCAAG in place of CACGTG) (dsDNA)
DNA 1: TGCAGGAGTTCCAAGGCGAAGGTT
DNA 2: AACCTTCGCCTTGGAACTCCTGCA
Kd (MEF-1): 111 ± 18 nM
Kd (MEF+1): 65 ± 7 nM
Kd (MEF/LA): 44.5 ± 6 nM
Kd (ME47/AA): 87.5 ± 5.1 nM
Kd (MEF): 96 ± 22 nM

B3: E-box (-7 GC E-box) (dsDNA)
DNA 1: GCGGCCGCTGCAGGAGCCACGTGCGGGAATTCTTTACA
DNA 2: TGTAAAGAATTCCCGCACGTGGCTCCTGCAGCGGCCGC
Kd (MEF-1): 59 ± 5 nM
Kd (MEF+1): 30 ± 4 nM
Kd (MEF/LA): 10.7 ± 1.5 nM
Kd (ME47/AA): 27.7 ± 1.7 nM
Kd (MEF): 7.8 ± 0.6 nM
